In the domain aggregation screens of Martell et al. (2025):

Test: soluble fraction after stress (log2 fold change); higher = more stays soluble; pooled small domains, quantitative proteomics
Conditions: stress: 75 degC
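Note: 20 min heating vs room temperature control held 20 min.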

Sequence | soluble fraction (log2)
HMGSEGVKVEDTIGMSEAEATATLGKSGFVVNKTESHDPYIKAGNVITQSPAAGSKAPKGTTVTLTISLGP | 0.404
HMGSEISYSEFLNRVEQGQVAAVRLDGEQIFITGPTGEAYQTIQPRNTDVLPDLREAGVEIQAAPQ | 0.22
HMGSEYPSNPLASRWAKGVRLYHDEWGYGVIQAARGSEPDDYVITVRFESGAEKSFLPKFQAHSLMIVKD | -1.21
HMGSGQVTLPDLEGKSMKEVARILSQLGLHLSPDGHGLAFKQSPAAGTRVPVGSTIKVSFQPL | -0.164
HMGSKKAIPYVSGMSETEAQNELEEAGFKVTSSFQYDDSVESGKVISTTPEAGTKAEKGSTVTMLVSQGSN | 0.0103
HMGSLVQTAMQAVTKHIHDNAMRVGDTLPGEGHFAETLGVSRAVMREAFGALAALKLIDVGNGRKPRVGR | -1.33
HMGSNATIKYAIKGDESLVQVAQKFNVTVSELRSWNNISAFENAKTGQELVINVPASKYETYFALANT | 0.403
HMGSNLSFDLSQIIASRYQEKAAELGLTAPSLARTDLSPQEQATAEVVARAIIADYYDQRVAPFNDLIPQ | -0.631
HMGSNRPLALGDVVRIEGSKTLGTILELNAKDAVVALGALKTTLPLSRIHHASSQESQRLKRQATQAPLR | -0.203
HMGSPKLVIKNGQVDYQVLKKEKLDLLELTSLLRGQNTFSIREIEYAIIEPNGVITVIKKPEYQSVVKGDL | -0.43
HMGSPVTAVMNRVLNETERQIVTLHVISGFKHREIAELLEKPVGTVLWTYNNALGKMRKAMQRE | -1.67
HMGSRRFGDSNHAAKLTEEQVVEIRELAAAGATTKFLAEMVGMHPNYVGLILRGLSWPEAGGPLRVA | 0.126
HMGSVDMVYGDHKINSEHMDLSFKNQTAVLYDKVNYKSSLSMLSADKILVNFLNKYTKIEMNDENNNILIQ | 0.176
HMGSVNDNVQKLTSQIGETTETGDTITPEDVELYKKMVDPLSTMAQKLEAAEILKLKGIIGSNGIIV | -0.211
HMGSWEDALKNWVDSALASGQKGILEQAVPKFERIMIETALTHTAGRRRDASLLLGWGRNTLTRKIKELGI | -0.383
HMGTAESIRLFLSSGLIKGVGEALAGRIVDTFGTDTFDIIENHPELLAGVKGISHRLAMSIYESFSQHIGV | -1.13
HMGTDIGADKAAQTALADAGLSSSQVTGLRTKQDWDDGQLRYEVEFRAGGVEYDYELAADGTILKADRDT | 0.17
HMGTEITEQRAKEIALENAKVAESDVTAMRVKKEMDDGVWRYDVEFYVQNKEYDYEINAMDGTILSVDYD | -0.00128
HMGTESFGARIRKIREARDWTPAALAEATGQTPEFVARVERDEVAPPVAFLLRLAAALGVDPSTF | -0.557
HMGTGADKNSWTIGDKVKHRKWGTGTVVKVTGAGEDAELDIAFKSEGIKRLLAAFAPIEKVK | -0.165
HMGTHDAGTRFFDNLDSLLQNRDATRADVLAVYLLAVSLGFRGKHRSVSSAPQIAHYRNQAYVTLFQ | 0.737
HMGTIEQAFKGKAPGSAHLYDRARAVLAGGVTHDTRIHAPFPIMVQRALGARKWDVDGNEYIDY | 0.064
HMGTMKGFVDGSSVHLRSGPSLSESIRAKVVKGQTLYITERRGDWYRATVHGGGEGWIHTSLVKLAG | -1.68
HMGTPLYLLLAAEVRDRIATEQLAPHTAVPSERELAELHGVSRMTARQALALLESEGLVYRNPPRGTFVAE | -1.15
HMGTQIKSPMPGTILDVRVNVGDTVKEGDILMILEAMKMENEILAPVSGKVAAIQVSKGTAVNSGDLLAVL | -0.0689
HMGTRHPLPYAYARANTVLLEDDGDRLVLWAPENVSLTALGEVLRRFDVDALERESSSTLANRIAVAYAG | -0.774

Sequence | soluble fraction (log2)
HMGTTLTKIPGIGENRARLLLRHFGSLRAVREADADALAAVKGMTRPAAEAIVRYFEQQDAEGRRD | 0.282
HMGTTTPPATRKGKVTSSFLNVRSGPSTANAKVAELKQNAVVTIYETSSNGWHRIGVNQWVIGTNIQE | -1.2
HMGTVSSGSSSTDTPFSLGEIVRHKVFGEGVVLSIEGQGDASRIQINFNTAGTKWLVTAYADLEK | -1.09
HMGTVVKRNALVHAWTEFNGGRASTKLLALGPGKVGEWIELENPQSGRKLRGEVQVDGSVRLG | 0.0593
HMGTWKKIGTMTATVNDLYVRETPNGYIMGFINKGTVVEVDGKTTGKWTHAKVEGIGVGWIWTGYLDK | -3.17
HMGTYYTEIIAQLKKEIANGTWKLGERLPGELALAKQFNVSRSSIREALKALAYAGIVESKPGRGTFLLHV | -1.5
HMGVAAEDPDEAEKGAHSLKSSAANVGAEVVRGLAGEIESAASSGDVEAVRTILPGLEDAYSQAITDLET | 0.266
HMGVDMGPAKYVGQKALTATEMRPAGKIQIGQTVFDAVSVGPFIGARKAVKVIKYENAQLYVEPE | -0.415
HMGVEVEVPNVKGKLVADAEYELGLAQLTPVRTDSAYNRNLPPGTVLEQLPASGSHVKEGREIYLTINST | 0.284
HMGVGERIKARRKEIGLSAEQVAKELGVSPATVYRYESNDIMNMRIDKLEPIAKALHTTPAYLMGWE | -0.0856
HMGVGVKSTEVDYQRTSSGSDIPTDDAAWTKTIPAVKVNTFLWTRTKINYTDGTSAIFYSVGY | -3.05
HMGVGVPVTLLLEKLGEDTLSAQQIMERLGLKSRASFRKVYLVPALEQKLIEMEFPDKPNSSKQRYRR | -0.859
HMGVISRVITFWQNGFTVDDGPLRAFDDPANMAFMESIGRGEAPAELAPKTRTQRVNINLVQRHEPYSAPK | -0.147
HMGVITVRPPIVVRDFAIALNLKPFQVIGNLMELNKVVSVSSVIEEADARKVAERHGYTLEIRH | -1.67
HMGVMNEYEELRDRYLTGQIWKIGDLVEAKGIEGKIIQRGTNYITFNDSQGKVHKAWLHEIKV | -0.00315
HMGVNNDIIKHRKLEFMIEMLPDTFTRKEANEIGEGLGISLATLTRYLSSDAFERTGHGRYRKKD | -1.35
HMGVPTEQEIGKRILAWRKLRGMTLQQLADKAGVGLTTIHNLETGLWYAKMPTYLYIAEALGVSLDALIYG | -1.76
HMGVPVTAPMPGKVLKVTVSVGAAVKNGDLVLVLEAMKMENEIFATANGVVKEIRSREGDTVNSGDVMMVI | -2.19
HMGVRPAALGFQKVRIEPQVGTFREASGDVITPRGLIHAEWKRDEENALHLHYTLPDGVAYA | -0.0752
HMGVSDDMARGVVRARQFLSDFAAVPLDRMTPAEAVARARQLKSELETDAKHSPWLLDVLSNA | -0.116
HMGVSEIGSPAWMESKLVTLASYEGSLDGLRTLWGGVAQHRARIPVESWDRLFAAKEEGKARLVKLGRT | -1.25
HMGVSLREVPVAEHGDWIGRPIKELGIPAEVLIVLVRRADGTTVVPKGGTVLQQGDMLVVNEWEE | -1.16
HMGVTDSSYNVLRRQILEMLSVQQRTPADLARLIEADKEEIAAVIRFLLDKGEIQMEDGMLQTK | -0.821
HMGVVEEVAADFEGRAVVGKVDVDEQTELARRFGIMSIPTLVVMKGGKVVEQAVGARGKADIAAMLERH | 0.183
HMGYINLNVKVSPEWRDFWRSAYASVVAGYHQNKEHWNTIILDGSIPDKDIKRMIAESYDLVSD | -0.561
HMGYLNDRQRLIKDFITENQPLKVSDLVKQFPNIGLSTLKKDLQYLRGEQVLTMIGKGKGSVYVLNKK | -0.975

Sequence | soluble fraction (log2)
HMGYNDQEVKSNLITLLSTSKTGLSGVEISAQLGINRVTMTKFLNVFAAEGIIKQKNIGNLNLWLVEEGTE | -3.44
HMGYTTSFVVQLKNAVSISFDEIDQNLRKLPGVEDVVIVEEAAMAYLKVDRQHFREEQLAHFEFVRQ | -1.99
HMGYVQLTAREKEVLQGLVDGASYKMIAAKLDIRFGTVHTHVKNIYEKLHVNSASEAVVKAIRQRL | -2.26
HMHADIAATVVATMRQLGVLGLPRNYEIFYEALSGTNRELSLAVVSLSNRPTQDDLDRIGRRFFA | -1.33
HMHAEEIAREAKEALERGEEFHFAGITVRSEEALEFLEEWLRKFF | -1.02
HMHALSVKFSDEAAKTLPYDILSALRDVLALDPRPGYSRDENKIYRFEYADYNISFSVKDKTLTVLSAEK | -2.15
HMHAPRIEVVQIDPEKIGALIGPGGKNIRRITEVTGANLDIDEDNSGKIRVYASDSEAMNRALQEIDLVT | 0.308
HMHDHKTRLQELAAQRFGSAPSYLLTADGPAHDRRFHASVEVGGRSFGPGTGKSKKRAEQVAAHIAWDALS | 0.238
HMHDIPDITDLRPLRHTLGLTLAHAAQQLNTTTATISRLERGQHRNDHLATTYRTWLHTHPT | -0.291
HMHDLSQQIVRYLIQQGGSSSLTDKSDPQEIYRTFKVSKKKYKQALGNLYKSKTIVITSGKIELVD | -3.03
HMHDYNTIVGVIEMRDKNIPLTSIRQRYGIGYSGIDLILTRYKDSGLTLKEFLALDPSQAEELIYPPK | -0.961
HMHEHWDGSGFPKHLRGANIPLGARVIAVADTYDSITSSRAYRAGSTHEAAEREMRRVSGTQLDPE | 0.0624
HMHEIVDTVLQVKQSVEADPLIAPALKNKEIVFQLNAKGVFQFKNAVIQVASALGISKNTVYMHLRNNK | -3.04
HMHETMGQIIKRLRKERGLTQESLAERLGVTFQAVSKWETDAGMPDVSQIVPLANAFGVRTDVLFGLEGRD | -0.744
HMHEYSRIYQQQWWDNATGADAYHVIHSARSRAAQDPEAARALEYLEEQFRIRYGVRTEDFLGYLHD | -1.2
HMHFENEETFVLPLVREGFSEQQQLEMVDRLLFDANTDNPRWIIDWMASELPSTQRELLLDLEKRLAEVRS | -0.0441
HMHFEWNELRKAINDFLAEQNMNEDKQLGPYFIQRDIVVPETGTEIDSKKFSEVFKHKVIMYLFDDAAKQ | 0.0433
HMHGESISVPDLRGQKMERMPAFLADKHLQFKVIDSLFDLEKNPGTVLEQDPAPNSKVKEGRTIYLTVNAQ | -0.00257
HMHGQGTYTSPDGTKYVGDWQDEKMHGQGTYTYPDGMKFVGEFKDNKPWNGTGYDKYGNVKATFSNGVGKS | -0.0508
HMHGSSSTVPPVKGLSFEQARLTLAENDLTVEISDSIYDRNARPGTVVESWPRAGSVVKQGRQVYVTVTAF | -0.894
HMHHDDHNQQEEIKEKLLAMVADGERHHVTEVRQLDEDWDMVTKVMKELMDEEQLLMDGSYLILSA | 0.116
HMHHSGLRQSQFDEISRQIRSLLEMESLSLQELKTRMEDVPEEQLTKVVSYLLSEEIIRQENGRLQ | 0.254
HMHKAVVGPPNARKLAVTYGFKRWPALVFFRDGKYLGAVDGLRLWADLVREADEIMHSEPHYP | 0.0613
HMHKFMEQNQDRRLSRMKELIGILSEAAKTYYQESREIMSNFQYDRMYDELLELEKETGVVMAGSPTQKV | -0.276
HMHKKQEVQDSIDAAEEFMRASGVPAELITSKRAYAVKAIYADAVDKGTPDEIVKKDGMIVALISQMRS | 0.421
